We go through three substances from paper PMC6638984, “Increased association between Epstein-Barr virus EBNA2 from type 2 strains and the transcriptional repressor BS69 restricts EBNA2 activity” (PLoS Pathogens, 2019).

A word on the Kd: it is the concentration at which binding is half-saturated. Broadly, the stoichiometry N is a count of units in the complex or per binding partner.

Experiment [1] has as its target BS69 CC-MYND (Homo sapiens) (UniProt Q15326). The following applies: cited from earlier work.
The target in experiment [2] is BS69 coiled-coil MYND domain (BS69_(CC-MYND), amino acids 480-602) (human) (UniProt Q15326). The experiment in a line: ITC; EBNA2 polypeptide titrated into 0.1 mM BS69_(CC-MYND) in the cell, 19 x 2.0 μl injections, 25°C, 20 mM Tris-HCl, 100 mM NaCl, 1 mM TCEP, pH 7.5; one-site (one event) model; n calculated for monomeric proteins.
The target is the same in experiment [3]. Briefly: ITC; EBNA2 polypeptide (0.3 or 0.6 mM) titrated into 0.1 mM BS69_(CC-MYND) in the cell, 19 x 2.0 µl injections, 25°C, 20 mM Tris-HCl, 100 mM NaCl, 1 mM TCEP, pH 7.5; one-site (one event) model; n on monomer concentrations; mean of 3 experiments. In general terms: Isothermal titration calorimetry measures the heat released or taken up as one component is titrated into another.

Sequence of BS69 coiled-coil MYND domain (BS69_(CC-MYND), amino acids 480-602) (human) (Q15326 480-602): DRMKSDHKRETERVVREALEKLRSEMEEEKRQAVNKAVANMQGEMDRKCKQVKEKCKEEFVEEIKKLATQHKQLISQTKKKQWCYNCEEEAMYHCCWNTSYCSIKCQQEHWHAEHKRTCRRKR
Sequence of type 1 EBNA2 polypeptide T1 EBNA2_(381-445) (domain or fragment) (P12978 381-445): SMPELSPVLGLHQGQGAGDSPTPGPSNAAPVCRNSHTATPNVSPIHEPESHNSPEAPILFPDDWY
Sequence of type 1 EBNA2 polypeptide T1 EBNA2_(381-455) (domain or fragment) (P12978 381-455): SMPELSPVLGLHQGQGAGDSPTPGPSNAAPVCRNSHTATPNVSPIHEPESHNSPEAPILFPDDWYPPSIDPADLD
Sequence of BS69 CC-MYND (Homo sapiens) (Q15326 480-602): as the sequence (Q15326 480-602) above

On to “EBNA2 type 1 motif 2 peptide motif 2 (from UniProt P12978)”, for which, in experiment [1], the Kd is 35 µM.

Consider “type 1 EBNA2 polypeptide T1 EBNA2_(381-445) (domain or fragment)”, for which, in experiment [2], the Kd is 0.95 µM and the stoichiometry N was 0.42.

The substance “type 1 EBNA2 polypeptide T1 EBNA2_(381-455) (domain or fragment)” registered a stoichiometry N in experiment [3] of 0.38.
